Residue numbers refer to the chain shown, from its start.
T1: mouse FcγRII (mouse, UniProt P08101 30-210)
T1 construct: also called mFcγRII; mFcgRII
T1 sequence: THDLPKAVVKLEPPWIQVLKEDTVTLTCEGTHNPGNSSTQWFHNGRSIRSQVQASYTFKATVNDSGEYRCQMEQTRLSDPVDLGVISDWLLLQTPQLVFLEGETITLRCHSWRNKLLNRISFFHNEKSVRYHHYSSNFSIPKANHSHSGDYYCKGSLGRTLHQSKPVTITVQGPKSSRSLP

T2: mouse FcγRIII (mouse, UniProt P08508 31-215)
T2 construct: also called mFcγRIII; mFcgRIII
T2 chain: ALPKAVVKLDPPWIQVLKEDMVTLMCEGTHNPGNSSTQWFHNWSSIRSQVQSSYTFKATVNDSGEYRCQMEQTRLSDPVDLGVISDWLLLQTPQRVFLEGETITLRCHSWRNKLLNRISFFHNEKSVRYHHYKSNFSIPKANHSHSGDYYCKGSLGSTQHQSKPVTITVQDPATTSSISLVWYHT

B1: H237-MB633/MRAL-k0 (antibody, mouse IgG1, kappa)
heavy: QVQLQESGPGLVKPSETLSLTCAVSGHSISHDHAWSWVRQPPGEGLEWIGFISYSGITNYNPSLQGRVTISRDNSKNTLYLQMNSLRAEDTAVYYCARSLARTTAMDYWGEGTLVTVSSAKTTPPSVYPLAPGSAAQTNSMVTLGCLVKGYFPEPVTVTWNSGSLSSGVHTFPAVLQSDLYTLSSSVTVPSSTWPSETVTCNVAHPASSTKVDKKIVPRDCGCKPCICEDYEVENVFIFPPKPKDVLTITLTPKVTCVVVDISKDDPEVQFSWFVDDVEVHTAQTQPREEQFNSTFRSVSELPIMHQDWLNGKEFKCRVNSAAFPAPIEKTISKTKGRPKAPQVYTIPPPKEQMAKDKVSLTCMITDFFPEDITVEWQWNGQPAENYKNTQPIMDTDGSYFVYSKLNVQKSNWEAGNTFTCSVLHEGLHNHHTEKSLSHSPGK
light: not shown
notes: mouse IgG1 CH variant; copies: 2 + 2
B2: H237-MB637/MRAL-k0 (antibody, mouse IgG1, kappa)
heavy: B1 heavy with D230P, Y231A
light: not shown
notes: as for B1
B3: H237-MB638/MRAL-k0 (antibody, mouse IgG1, kappa)
heavy: B1 heavy with E229I, D230P, Y231A
light: not shown
notes: as for B1
B4: H237-MB641/MRAL-k0 (antibody, mouse IgG1, kappa)
heavy: B1 heavy with D230A, N235Y
light: not shown
notes: as for B1
B5: H237-MB643/MRAL-k0 (antibody, mouse IgG1, kappa)
heavy: B1 heavy with D230N, N235Y
light: not shown
notes: as for B1
B6: H237-MB647/MRAL-k0 (antibody, mouse IgG1, kappa)
heavy: B1 heavy with E229I, D230P, Y231A, N235Y
light: not shown
notes: as for B1
B7: H237-MB687/MRAL-k0 (antibody, mouse IgG1, kappa)
heavy: B1 heavy with D230P, Y231P, N235L
light: not shown
notes: as for B1
B8: H237-MB690/MRAL-k0 (antibody, mouse IgG1, kappa)
heavy: B1 heavy with E229T, D230P, Y231A, N235Y
light: not shown
notes: as for B1
B9: H237-MB692/MRAL-k0 (antibody, mouse IgG1, kappa)
heavy: B1 heavy with D230P, Y231P, N235Y
light: not shown
notes: as for B1
B10: H237-MB693/MRAL-k0 (antibody, mouse IgG1, kappa)
heavy: B1 heavy with E229T, N235Y
light: not shown
notes: as for B1
B11: H237-MB702/MRAL-k0 (antibody, mouse IgG1, kappa)
heavy: B1 heavy with E229T, D230A
light: not shown
notes: as for B1
B12: H237-MB703/MRAL-k0 (antibody, mouse IgG1, kappa)
heavy: B1 heavy with D230A, Y231P
light: not shown
notes: as for B1
B13: H237-MB715/MRAL-k0 (antibody, mouse IgG1, kappa)
heavy: B1 heavy with D230P, Y231N, N235V
light: not shown
notes: as for B1
B14: H237-MB716/MRAL-k0 (antibody, mouse IgG1, kappa)
heavy: B1 heavy with D230P, Y231N, N235I
light: not shown
notes: as for B1
B15: H237-MB718/MRAL-k0 (antibody, mouse IgG1, kappa)
heavy: B1 heavy with D230P, Y231N, N235T
light: not shown
notes: as for B1
B16: H237-MB731/MRAL-k0 (antibody, mouse IgG1, kappa)
heavy: B1 heavy with D230P, Y231A, V233E, N235L
light: not shown
notes: as for B1
B17: H237-MB732/MRAL-k0 (antibody, mouse IgG1, kappa)
heavy: B1 heavy with D230P, Y231N, V233E, N235L
light: not shown
notes: as for B1
B18: H237-MB748/MRAL-k0 (antibody, mouse IgG1, kappa)
heavy: B1 heavy with D230P, Y231N, N235L, S263A
light: not shown
notes: as for B1
B19: H237-MB752/MRAL-k0 (antibody, mouse IgG1, kappa)
heavy: B1 heavy with D230P, Y231N, N235L, S294L
light: not shown
notes: as for B1
B20: H237-MB753/MRAL-k0 (antibody, mouse IgG1, kappa)
heavy: B1 heavy with D230P, Y231N, N235L, S294M
light: not shown
notes: as for B1
B21: H237-MB755/MRAL-k0 (antibody, mouse IgG1, kappa)
heavy: B1 heavy with D230P, Y231N, N235L, S294L, N320D
light: not shown
notes: as for B1
B22: H237-MB757/MRAL-k0 (antibody, mouse IgG1, kappa)
heavy: B1 heavy with D230P, Y231N, N235L, S294M, N320D
light: not shown
notes: as for B1
B23: H237-MB758/MRAL-k0 (antibody, mouse IgG1, kappa)
heavy: B1 heavy with D230P, Y231N, N235L, S294M, K330R
light: not shown
notes: as for B1
B24: H237-MB762/MRAL-k0 (antibody, mouse IgG1, kappa)
heavy: B1 heavy with D230P, Y231N, N235L, F292E
light: not shown
notes: as for B1
B25: H237-MB763/MRAL-k0 (antibody, mouse IgG1, kappa)
heavy: B1 heavy with D230P, Y231N, N235L, F292N
light: not shown
notes: as for B1

What follows are binders tested against T1, mouse FcγRII (assay: SPR (Biacore), antibody captured on Protein L, mFcγR as analyte).
Procedure: (§1) Each altered antibody was analyzed for its interaction with each Fcγ receptor prepared above using Biacore T100 (GE Healthcare Japan Corp.), Biacore T200 (GE Healthcare Japan Corp.), Biacore A100, or Biacore 4000. The running buffer used was HBS-EP+ (GE Healthcare Japan Corp.). The assay temperature was set to 25° C. The sensor chips used were chips prepared by immobilizing Protein L (ACTIGEN or BioVision) onto Series S Sensor Chip CM5 (GE Healthcare Japan Corp.) or Series S Sensor Chip CM4 (GE Healthcare Japan Corp.) by the amine coupling method.
(§2) In order to calculate the KD value of each altered antibody for FcγR, kinetic analysis was conducted according to the following method: first, the antibody of interest was captured onto any of these chips and allowed to interact with mFcγR diluted with a running buffer. For the obtained sensorgram, the assay results were globally fit into the 1:1 Langmuir binding model using Biacore Evaluation Software to calculate an association rate constant ka (L/mol/s) and a dissociation rate constant kd (1/s). From these values, the dissociation constant KD (mol/L) was calculated.

Kd [nM]	relative mFcγRII-binding activity (mIgG1 = 1) [fold]	Binder
75.8	3.05	B1
80.7	2.87	B2
280	0.83	B3
143	1.62	B4
126	1.83	B5
200	1.16	B6
345	0.94	B7
204	1.6	B8
186	1.75	B9
267	1.22	B10
339	0.96	B11
345	0.94	B12
236	1.14	B13
52.8	5.07	B14
247	1.08	B15
238	1.13	B16
321	0.84	B17
17.9	10.3	B18
35.1	5.24	B19
36.8	5	B20
27.8	6.62	B21
27.8	6.63	B22
21.5	8.57	B23
48.1	5.12	B24
61.9	3.98	B25

Molecular target: T2, mouse FcγRIII
Assay: as above
Procedure: as §1, §2

Kd [µM]	relative mFcγRIII-binding activity (mIgG1 = 1) [fold]	Binder
1.64	0.2	B1
1.89	0.17	B2
3.38	0.1	B3
2.1	0.15	B4
2	0.16	B5
2.8	0.12	B6
5.32	0.1	B7
2.71	0.19	B8
4.44	0.12	B9
5.41	0.09	B10
3.52	0.14	B11
4.9	0.1	B12
11.9	0.04	B13
6.15	0.08	B14
5.56	0.08	B15
15.3	0.03	B16
13.7	0.03	B17
2.06	0.18	B18
3.28	0.11	B19
4.26	0.09	B20
2.5	0.15	B21
3.23	0.11	B22
2.11	0.17	B23
3.22	0.12	B24
3.97	0.1	B25
